Assays:
[1] = system: CAP (catabolite activator protein) wild-type (Escherichia coli); assay: EMSA; conditions: 20 uM cAMP, 10 mM Tris pH 7.5, 50 mM NaCl, 1 mM MgCl2, 25 C; approximate value
[2] = system: CAP70TAG azobenzyl-Phe mutant, irradiated at 334 nm (about 50% cis) I70(azobenzyl-Phe) (Escherichia coli); assay: EMSA; conditions: 20 uM cAMP, 25 C; after 334 nm irradiation 40 min at 0 C, photostationary state about 50% cis
[3] = system: CAP70TAG azobenzyl-Phe mutant, trans (before irradiation) I70(azobenzyl-Phe) (Escherichia coli); assay: EMSA; conditions: 20 uM cAMP, 25 C; approximate value; 4-fold lower than wt; same value recovered after switching back with light >=420 nm
[4] = target: E. coli leucyl-tRNA synthetase (ecLRS) wild-type (Escherichia coli, UniProt P07813 SEQ:1-860); assay: cell_activity; amber suppression of GAL4 (2 TAG) in S. cerevisiae, beta-galactosidase; printed as 104-fold increase (10^4) over either component alone
Source text: The orthogonality of the E. coli leucyl suppressor tRNACUA (Leu5CUA) (FIG. 1A), which has U35 and A37 in the anticodon loop, and the corresponding ecLRS was examined in vivo in a selection strain of S. cerevisiae [MaV203:pGADGAL4(2 TAG)]. See Chin, et al., Science, 2003, 301:964-7. This strain harbors the transcriptional activator GAL4 with amber codons at two permissive sites (Thr44 and Arg110). Efficient suppression at both sites leads to expression of three reporter genes: lacZ, his3, and ura3. In the presence of either Leu5CUA or ecLRS alone, no significant β-galactosidase activity was detected above the residual activity in lysates from […] cells. […] See ibid.

Sequence of E. coli leucyl-tRNA synthetase (ecLRS) wild-type (P07813 whole entry, the tested form may be a part): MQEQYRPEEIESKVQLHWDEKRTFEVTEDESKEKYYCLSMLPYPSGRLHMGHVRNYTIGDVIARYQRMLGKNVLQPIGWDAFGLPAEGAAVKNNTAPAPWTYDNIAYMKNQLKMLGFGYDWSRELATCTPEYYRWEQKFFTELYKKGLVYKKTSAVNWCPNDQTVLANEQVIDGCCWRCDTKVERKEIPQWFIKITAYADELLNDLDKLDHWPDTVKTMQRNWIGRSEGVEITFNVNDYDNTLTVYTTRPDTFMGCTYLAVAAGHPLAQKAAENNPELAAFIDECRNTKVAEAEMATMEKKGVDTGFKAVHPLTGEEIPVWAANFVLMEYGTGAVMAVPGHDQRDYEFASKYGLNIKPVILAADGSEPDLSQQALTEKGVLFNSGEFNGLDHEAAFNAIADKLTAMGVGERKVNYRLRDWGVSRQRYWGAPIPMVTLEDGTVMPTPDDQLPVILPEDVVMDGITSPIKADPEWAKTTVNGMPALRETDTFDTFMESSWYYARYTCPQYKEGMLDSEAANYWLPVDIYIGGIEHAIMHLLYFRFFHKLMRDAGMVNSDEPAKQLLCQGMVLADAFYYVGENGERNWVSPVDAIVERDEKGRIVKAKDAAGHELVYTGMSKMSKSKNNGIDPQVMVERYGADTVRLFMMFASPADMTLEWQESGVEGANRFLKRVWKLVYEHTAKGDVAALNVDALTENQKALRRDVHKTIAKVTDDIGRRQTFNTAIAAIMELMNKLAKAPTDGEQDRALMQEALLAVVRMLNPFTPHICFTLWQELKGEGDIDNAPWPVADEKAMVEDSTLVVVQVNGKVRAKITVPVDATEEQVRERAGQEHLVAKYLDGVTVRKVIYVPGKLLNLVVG

Molecule	Ka [1]	Ka [2]	Ka [3]	activity [4]
118 bp lac promoter fragment with primary CAP site	1.6e+07 M⁻¹	1e+06 M⁻¹	4e+06 M⁻¹	–
Leu5CUA amber suppressor tRNA (ssRNA) RNA: GCCCGGAUGGUGGAAUCGGUAGACACAAGGGAUUCUAAAUCCCUCGGCGUUCGCGCUGUGCGGGUUCAAGUCCCGCUCCGGGUACCA	–	–	–	> 10000 fold

From patent publication US20060134746, “Adding photoregulated amino acids to the genetic code” (The Scripps Research Institute, published 2006)
